From US20250320284A1 (AC IMMUNE, published 2025)
Where a chain is given by its changes, count along the chain named.

T1: CARD domain of human ASC (human, UniProt Q9ULZ3 107-195)
T1 construct: biotinylated in BLI; also called hCARD; human CARD
T1 sequence: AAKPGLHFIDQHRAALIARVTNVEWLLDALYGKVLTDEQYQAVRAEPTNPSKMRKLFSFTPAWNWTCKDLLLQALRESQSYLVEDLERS

T2: mouse ASC (mouse, UniProt Q9EPB4 1-193)
T2 construct: recombinant mASC in ELISA and SPR; endogenous ASC of J774.A1 cells in Western blot and immunofluorescence; also called mASC
T2 sequence: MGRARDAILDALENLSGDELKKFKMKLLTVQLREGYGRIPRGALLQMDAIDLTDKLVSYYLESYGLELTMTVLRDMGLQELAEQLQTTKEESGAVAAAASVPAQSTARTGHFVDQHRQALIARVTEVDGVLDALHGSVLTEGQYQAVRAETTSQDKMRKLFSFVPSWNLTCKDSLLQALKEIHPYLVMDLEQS

B1: ACI-8016-401H9B7-AB1 (antibody, V domains shown)
VH: QIQLVQSGPELKKPGETVKISCKASGYTFTKYGMNWVKQAPGKGLKRMGWINTYTGEPTYSDDFKGRFAFSLETSASTAYLQINNLKNDDTATYFCARLGYANSFDSWGQGTTLTVSS
VL: DIQMTQSPASLSATVGETVTITCRASENIYTYLAWYQQKQGKSPQLLVHNANTLVEGVPSRFSGSGSGTQFSLKINSLEPEDFGNYYCQYHYGSPYTFGGGTKLEIK
B2: ACI-8016-2610H7D3-AB1 (antibody, V domains shown)
VH: QVQLQQSGVELARPGASVKLSCKASGFSFTSYGISWVKQKTGQGLEWIGQIYLRSSNTYYSEKFKDRATLTADKSSSTVYMELRSLTSEDSAVYFCARYYGSSSDYWGQGTTLTVSS
VL: DIQMNQSPSSLSASLGDTITINCHASQNINVWLSWYQQKPGNIPKVLINQASNLQTDVPTRFSGSGSGTDFKLIISRLQSEDIATYYCQQGQSYPWTFGGGTKLEIK
B3: ACI-8016-23E5F7-AB1 (antibody, V domains shown)
VH: QVQLQQSEAELARPGASVKLSCKASGYTFTSYGIFWVKQRTGQGLEWIGEIYPRSGNTYYNENFRDKATLTADKSSSTAYMELRSLTSEDSAVYFCARQRDDYWGQGTTLTVSS
VL: QIVLTQSPAIMSASPGEKVTITCSVSSSVSYMYWFQQKPGTSPKVWIYSTSNLASGVPARFSGRGSGTSYSLTISRMEAEDAATYYCQQRSSYPFTFGSGTKLEIK
notes: also called 936.23E5F7
B4: ACI-8016-416E6G4-AB1 (antibody, V domains shown)
VH: QVQLKQSGPGLVQPSQSLSITCTVSGISLSSYGLHWVRQSPGKGLEWLGVIWSGGNTDYSATFISRLSISKDNSKSQVFFKMDSLQVDDTAIYYCARNEVWGQGTSVTVSS
VL: not shown
B5: ACI-8016-413G10A5-AB1 (antibody, V domains shown)
VH: QVQLKESGPGLVAPSQSLSITCTVSGFSLTSYGVHWVRQPPGKGLEWLGVIWAGGSTNYNSALMSRLSISKDNSKSQVFLKMNSLQTADTAMYYCARWDYVNSYEAMDYWGQGTSVTVSS
VL: DVVMTQTPLSLPVSLGDQASISCRSSQSLVHSNGNTYLHWYLQKPGQSPKLLIYKVSNRFSGVPDRFSGSGSGTDFTLKISRVEAEDLGVYFCSQSTHVPYTFGGGTKLEIK
B6: ACI-8016-203B12C3-AB1 (antibody, V domains shown)
VH: QVQLKQSGPGLVQPSQSLSITCKVSDFSLSHYGVHWVRQSPGKGLEWLGVIWSGGTTEYNEAFISRLTISKDNSKSQILFRMNSLQPADTAIYYCARKGDFYGDYFDYWGQGTTLTVSS
VL: DIQMTQTSSSLSASLGDRVTISCRASQDISNYLNWYQQRPDGTVKLLIYYTSKVHSGVPSRFSGSGSGTDFSLTISNLEQEDFATYYCQQGNTRPFTFGGGTKLEIK
B7: ACI-8019-2314F6H11-AB1 (antibody, V domains shown)
VH: QVQVQQSGADLARPGASVKLSCKASGYTFTNYGINWVKQRTGQGLEWIGEIYPKNIDIYYNEKFKGKATLTADKSSSTAYMELRSLTSEDSAVYFCGRSSFGFSGNYAMDYWGQGTSVTVSS
VL: B5 VL with S28N, V30I, N35I, D65H, Y101W

Assays:
[1] = target: T3, human ASC (apoptosis associated speck-like protein containing a caspase-recruitment domain) (human, UniProt Q9ULZ3 1-195); test: ELISA, coated hASC;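 further: antibody binding to plate-coated recombinant human ASC, read as phosphatase substrate absorbance, EC50 from four-parameter variable-slope fit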
T3 construct: recombinant hASC in ELISA and SPR; endogenous ASC (cytoplasmic or specks) in Western blot and immunofluorescence; also called hASC; PYCARD

PYD domain of human ASC [2] = target: T4, PYD domain of human ASC (human, UniProt Q9ULZ3 1-91, limits assumed); test: ELISA, coated hPYD;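 further: monoclonal antibody binding to plate-coated human ASC PYD measured by ELISA, with a phosphatase substrate absorbance read-out and EC50 from a variable slope curve fit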
T4 construct: biotinylated in BLI; His/MBP-tagged in the alanine ELISA; also called hPYD; human PYD

[3] = target: T3, human ASC (apoptosis associated …); test: cell-based or functional assay
[4] = target: T3, human ASC (apoptosis associated …); test: cell-based or functional assay; remark: listed apart in the source
[5] = target: T3, human ASC (apoptosis associated …); test: SPR affinity mode, mAb captured;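 further: Single-cycle SPR kinetics with mAbs captured on goat anti-mouse antibody, double-referenced against blank flow cell and buffer cycle, fitted by a 1:1 kinetic model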
[6] = target: T3, human ASC (apoptosis associated …); test: SPR avidity mode, ASC immobilized;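 further: Single-cycle SPR kinetics on Biacore T200, antibodies injected at 1.2–100 nM (3-fold steps), 300 s association, 900 s dissociation, double-referenced, 1:1 kinetic model fit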
PYD domain of human ASC [7] = target: T4, PYD domain of human ASC; test: BLI binning on PYD, competitor 22D3A6-AB1
PYD domain of human ASC [8] = target: T4, PYD domain of human ASC; test: BLI binning on PYD, competitor 23E5F7-AB2
PYD domain of human ASC [9] = target: T4, PYD domain of human ASC; test: BLI binning on PYD, competitor 26A1G2-AB1
PYD domain of human ASC [10] = target: T4, PYD domain of human ASC; test: BLI binning on PYD, competitor 31F10C5-AB1
PYD domain of human ASC [11] = target: T4, PYD domain of human ASC; test: BLI binning on PYD, competitor 401H9B7-AB1
PYD domain of human ASC [12] = target: T4, PYD domain of human ASC; test: BLI binning on PYD, competitor 416E6G4-AB1
PYD domain of human ASC [13] = target: T4, PYD domain of human ASC; test: BLI binning on PYD, competitor 2610H7D3-AB1
PYD domain of human ASC [14] = target: T4, PYD domain of human ASC; test: BLI binning on PYD, competitor 2617C3A8-AB1
PYD domain of human ASC [15] = target: T4, PYD domain of human ASC; test: BLI binning on PYD, competitor 2626B9D3-AB1
CARD domain of human ASC [16] = target: T1, CARD domain of human ASC; test: sandwich ELISA on MBP-tagged protein captured by anti-MBP antibody, signal as % of hPYD-WT
mouse ASC [17] = target: T2, mouse ASC; test: ELISA, coated mASC
mouse ASC [18] = target: T2, mouse ASC; test: cell-based or functional assay
mouse ASC [19] = target: T2, mouse ASC; test: cell-based or functional assay; remark: listed apart in the source
mouse ASC [20] = target: T2, mouse ASC; test: SPR affinity mode, mAb captured;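 further: Single-cycle SPR kinetics with mAbs captured on goat anti-mouse antibody, double-referenced against blank flow cell and buffer cycle, fitted by a 1:1 kinetic model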
CARD domain of human ASC [21] = target: T1, CARD domain of human ASC; test: sandwich ELISA on MBP-tagged protein captured by anti-MBP antibody, signal as % of hPYD-WT; remark: listed apart in the source
CARD domain of human ASC [22] = target: T1, CARD domain of human ASC; test: ELISA, coated hCARD
[23] = target: T3, human ASC (apoptosis associated …); test: SPR affinity mode, steady-state fit, apparent KD
mouse ASC [24] = target: T2, mouse ASC; test: ELISA, coated mASC; ELISA on mASC protein
mouse ASC [25] = target: T2, mouse ASC; test: SPR affinity mode, mAb captured; SPR affinity mode, mAb captured by Fc, mASC in solution;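 on KD: Single-cycle SPR kinetics with mAbs captured on goat anti-mouse antibody, double-referenced against blank flow cell and buffer cycle, fitted by a 1:1 kinetic model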;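 on koff: Single-cycle SPR kinetics with mAbs captured on goat anti-mouse antibody, double-referenced against blank flow cell and buffer cycle, fitted by a 1:1 kinetic model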
mouse ASC [26] = target: T2, mouse ASC; test: SPR avidity mode, ASC immobilized; SPR avidity mode, mASC covalently immobilized, mAb as analyte
mouse ASC [27] = target: T2, mouse ASC; test: Western blot, J774.A1 mouse macrophage lysate
[28] = target: T3, human ASC (apoptosis associated …); test: ELISA, coated hASC; ELISA on hASC protein
[29] = target: T3, human ASC (apoptosis associated …); test: SPR avidity mode, ASC immobilized; SPR avidity mode, hASC covalently immobilized, mAb as analyte;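 on koff: Single-cycle SPR kinetics on Biacore T200, antibodies injected at 1.2–100 nM (3-fold steps), 300 s association, 900 s dissociation, double-referenced, 1:1 kinetic model fit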;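 on kon: Single-cycle SPR kinetics on Biacore T200, antibodies injected at 1.2–100 nM (3-fold steps), 300 s association, 900 s dissociation, double-referenced, 1:1 kinetic model fit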
[30] = target: T3, human ASC (apoptosis associated …); test: SPR affinity mode, mAb captured; SPR affinity mode, mAb captured by Fc, hASC 2.2-180 nM in solution
mouse ASC [31] = target: T2, mouse ASC; test: SPR avidity mode, ASC immobilized;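 further: Single-cycle SPR kinetics on Biacore T200, antibodies injected at 1.2–100 nM (3-fold steps), 300 s association, 900 s dissociation, double-referenced, 1:1 kinetic model fit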

T4 sequence (Q9ULZ3 1-91 limits assumed): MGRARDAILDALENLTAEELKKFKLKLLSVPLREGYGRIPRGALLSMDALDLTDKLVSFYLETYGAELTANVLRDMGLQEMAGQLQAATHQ

| Binder | EC50 [1] [pM] | EC50 (PYD domain of human ASC [2]) [pM] | Human ASC polymerization assay, IC50 [3] [pM] | Kd [5] [pM] | koff [5] [s⁻¹] | kon [5] [M⁻¹ s⁻¹] | Kd [6] [pM] | koff [6] [s⁻¹] | kon [6] [M⁻¹ s⁻¹] | EC50 (mouse ASC [17]) [pM] | Kd (mouse ASC [20]) [pM] | koff (mouse ASC [20]) [s⁻¹] | also measured |
| --- | --- | --- | --- | --- | --- | --- | --- | --- | --- | --- | --- | --- | --- |
| B1 | 100 | 60 | 3100 | < 10 | < 1e-05 | 96000 | < 10 | 2.3e-07 | 74000 |  |  |  | IL-1β release, human monocytic cell line, IC50 [4]: 6940 pM; normalized binding response (PYD domain of human ASC [7]): 90%; normalized binding response (PYD domain of human ASC [8]): 83%; normalized binding response (PYD domain of human ASC [9]): 24%; normalized binding response (PYD domain of human ASC [10]): 95%; normalized binding response (PYD domain of human ASC [11]): 3%; normalized binding response (PYD domain of human ASC [12]): 47%; normalized binding response (PYD domain of human ASC [13]): 108%; normalized binding response (PYD domain of human ASC [14]): 112%; normalized binding response (PYD domain of human ASC [15]): 3%; binding result (CARD domain of human ASC [16]): no binding |
| B2 | 190 | 160 | 10100 | 270 | 0.000201 | 747000 |  |  |  | 270 | 410 | 0.000339 | Mouse ASC polymerization assay, IC50 (mouse ASC [18]): 60400 pM; IL-1β release, human monocytic cell line, IC50 [4]: 25200 pM; % IL-1β inhibition, mouse primary microglia, 420 nM mAb (mouse ASC [19]): 87.3%; kon (mouse ASC [20]): 831000 M⁻¹ s⁻¹; normalized binding response (PYD domain of human ASC [7]): 2%; normalized binding response (PYD domain of human ASC [8]): 0%; normalized binding response (PYD domain of human ASC [9]): 1%; normalized binding response (PYD domain of human ASC [10]): 2%; normalized binding response (PYD domain of human ASC [11]): 73%; normalized binding response (PYD domain of human ASC [12]): 6%; normalized binding response (PYD domain of human ASC [13]): 1%; normalized binding response (PYD domain of human ASC [14]): 0%; normalized binding response (PYD domain of human ASC [15]): 80%; binding result (CARD domain of human ASC [21]): no binding |
| B3 | 120 | 130 | 5800 |  |  |  |  |  |  | 150 | 10400 | 0.00264 | binding result (CARD domain of human ASC [22]): no binding; Mouse ASC polymerization assay, IC50 (mouse ASC [18]): 21000 pM; % IL-1β inhibition, mouse primary microglia, 420 nM mAb (mouse ASC [19]): 69.4%; kon (mouse ASC [20]): 261000 M⁻¹ s⁻¹; Kd [23]: 27100 pM |
| B4 | 70 | 70 |  | 14900 | 0.0025 | 280000 | 850 | 2.7e-05 | 39000 |  | 14500 | 0.00053 | binding result (CARD domain of human ASC [22]): no binding; EC50 (mouse ASC [24]): 70 pM; kon (mouse ASC [25]): 34000 M⁻¹ s⁻¹; Kd (mouse ASC [26]): 4880 pM; koff (mouse ASC [26]): 0.00013 s⁻¹; kon (mouse ASC [26]): 35000 M⁻¹ s⁻¹ |
| B5 | 50 |  |  | 130 | 2.2e-05 | 160000 | 10 | 1.2e-06 | 92000 |  |  |  | binding result (PYD domain of human ASC [2]): no binding; EC50 (CARD domain of human ASC [22]): 60 pM; binding result (mouse ASC [27]): no binding |
| B6 |  |  |  |  |  |  |  |  |  |  |  |  | binding result (PYD domain of human ASC [2]): no binding; EC50 (CARD domain of human ASC [22]): 67 pM; EC50 [28]: 100 pM; Kd [29]: 10200 pM; Kd [30]: 42000 pM |
| B7 | 100 |  |  |  |  |  | 910 | 8e-05 | 88000 | 200 |  |  | Kd (mouse ASC [31]): 16100 pM |
